Laboratory results reported in publication PMC4192486, “The Importance of a Gatekeeper Residue on the Aggregation of Transthyretin” (The Journal of Biological Chemistry, 2014).

Biological target: the molecule itself
Assay: SEC; Superdex 75 on HPLC, absorbance at 280 nm; 100 μM peptide in buffer pH 5.0 (100 mM MES, 100 mM KCl) at 25 °C, aliquots at 0, 5, 10, 15 and 30 min of the aggregation reaction; soluble WT peptide at the same concentration as control

B1: TTR 26–57 peptide bearing the K35L substitution (peptide)
peptide: not shown
notes: transthyretin (TTR), human, residues 26-57 with K35L; also called K35L peptide; 26–57 K35L; source: synthetic peptide; bought: Genemed Synthesis
  stoichiometry N: 10 to 15 units
